Assay results from US20140221611A1.
Positions of bridges follow the written chain, without caps; N, C: chain ends. No end group written: not given here. *: point of attachment. NHNH2 = NN*

What follows are binders tested against REFACTO® factor VIII-like polypeptide (amino acids 1-743 and 1638 through 2332 of human factor VIII) (human) (UniProt P00451) (assay: affinity column of immobilised peptide; fractions by factor VIII activity assay).
Chain of REFACTO® factor VIII-like polypeptide (amino acids 1-743 and 1638 through 2332 of human factor VIII) (human) (P00451 20-762, chain 1 of 2): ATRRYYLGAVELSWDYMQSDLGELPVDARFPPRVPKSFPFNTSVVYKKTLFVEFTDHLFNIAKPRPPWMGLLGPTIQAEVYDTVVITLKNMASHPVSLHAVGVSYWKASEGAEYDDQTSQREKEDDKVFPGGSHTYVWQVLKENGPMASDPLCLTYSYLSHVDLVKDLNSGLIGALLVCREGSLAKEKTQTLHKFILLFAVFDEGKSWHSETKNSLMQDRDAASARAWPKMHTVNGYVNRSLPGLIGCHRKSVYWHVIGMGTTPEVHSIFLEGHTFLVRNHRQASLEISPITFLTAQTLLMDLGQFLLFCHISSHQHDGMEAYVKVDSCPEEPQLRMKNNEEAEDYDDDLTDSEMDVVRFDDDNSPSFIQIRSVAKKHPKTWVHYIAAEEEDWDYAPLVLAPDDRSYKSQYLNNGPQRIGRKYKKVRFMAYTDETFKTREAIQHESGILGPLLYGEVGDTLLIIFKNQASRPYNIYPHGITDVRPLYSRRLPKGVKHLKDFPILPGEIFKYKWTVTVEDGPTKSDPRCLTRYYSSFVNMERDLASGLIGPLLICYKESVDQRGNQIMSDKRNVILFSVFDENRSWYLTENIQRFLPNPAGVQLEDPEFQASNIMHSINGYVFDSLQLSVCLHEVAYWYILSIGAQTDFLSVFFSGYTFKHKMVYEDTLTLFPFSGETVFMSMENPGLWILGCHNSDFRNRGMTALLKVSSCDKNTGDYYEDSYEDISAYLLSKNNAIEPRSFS
Chain of REFACTO® factor VIII-like polypeptide (amino acids 1-743 and 1638 through 2332 of human factor VIII) (human) (P00451 1657-2351, chain 2 of 2): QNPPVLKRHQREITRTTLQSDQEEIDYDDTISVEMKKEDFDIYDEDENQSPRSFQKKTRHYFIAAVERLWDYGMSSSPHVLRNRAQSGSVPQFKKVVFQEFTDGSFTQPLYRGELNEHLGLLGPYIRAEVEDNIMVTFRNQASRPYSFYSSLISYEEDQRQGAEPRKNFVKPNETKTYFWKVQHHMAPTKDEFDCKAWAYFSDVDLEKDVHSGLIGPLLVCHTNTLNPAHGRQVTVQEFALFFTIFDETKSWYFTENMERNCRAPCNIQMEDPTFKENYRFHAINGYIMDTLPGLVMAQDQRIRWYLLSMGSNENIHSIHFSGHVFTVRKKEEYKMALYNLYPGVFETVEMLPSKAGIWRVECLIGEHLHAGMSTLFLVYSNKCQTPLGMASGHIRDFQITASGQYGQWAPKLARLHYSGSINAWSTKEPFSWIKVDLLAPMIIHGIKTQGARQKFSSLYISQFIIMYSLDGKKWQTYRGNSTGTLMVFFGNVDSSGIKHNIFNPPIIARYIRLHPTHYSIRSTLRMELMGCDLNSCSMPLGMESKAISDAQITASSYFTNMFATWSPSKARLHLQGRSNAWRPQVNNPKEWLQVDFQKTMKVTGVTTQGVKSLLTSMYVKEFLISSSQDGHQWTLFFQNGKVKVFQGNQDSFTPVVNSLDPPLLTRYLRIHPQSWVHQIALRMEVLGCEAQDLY

Binder | % recovery in Elution A [%] | % recovery in Flow [%]
AEGTGDHPCGSWLRPCLHDPGPEGGGS-NHNH2 (disulfide 9-16 (inferred)) [Affinity ligand CS-453] | 26.4 | 0
AEGTGDHLCGAWFRPCDADPGPEGGGS-NHNH2 (disulfide 9-16 (inferred)) [Affinity ligand CS-454] | 42.4 | 2.2
AEGTGDFHCIGVWFCLHDPGPEGGGS-NHNH2 (disulfide 9-15 (inferred)) [Affinity ligand CS-455] | 1.3 | 61.6
AEGTGDFGCSWLFPCPFDPGPEGGGS-NHNH2 (disulfide 9-15 (inferred)) [Affinity ligand CS-456] | 43 | 4.8
AEGTGDFCWVFAFDHCHDPGPEGGGS-NHNH2 (disulfide 8-16 (inferred)) [Affinity ligand CS-458] | 55.6 | 1.4
AEGTGDFCWVFPFQHCADPGPEGGGS-NHNH2 (disulfide 8-16 (inferred)) [Affinity ligand CS-459] | 31.2 | 6.4
AEGTGDFCWVFPFHHCFDPGPEGGGS-NHNH2 (disulfide 8-16 (inferred)) [Affinity ligand CS-460] | 0 | 28.4

What follows are binders tested against REFACTO® factor VIII-like polypeptide (amino acids 1-743 and 1638 through 2332 of human factor VIII) (human) (UniProt P00451) (assay: affinity column of immobilised peptide; fractions by RP-HPLC).

Binder | % recovery in Elution A [%] | % recovery in Elution B [%] | % recovery in Flow [%] | % recovery in pH 2 [%]
AEGTGDHPCGSWLRPCLHDPGPEGGGS-NHNH2 (disulfide 9-16 (inferred)) [Affinity ligand CS-453] | 43.2 | 0 | 0 | 0
AEGTGDHLCGAWFRPCDADPGPEGGGS-NHNH2 (disulfide 9-16 (inferred)) [Affinity ligand CS-454] | 45.1 | 0 | 2.5 | 0
AEGTGDFHCIGVWFCLHDPGPEGGGS-NHNH2 (disulfide 9-15 (inferred)) [Affinity ligand CS-455] | 1.4 | 0 | 65.8 | 0
AEGTGDFGCSWLFPCPFDPGPEGGGS-NHNH2 (disulfide 9-15 (inferred)) [Affinity ligand CS-456] | 44.8 | 0 | 3.4 | 0
AEGTGDFCWVFAFDHCHDPGPEGGGS-NHNH2 (disulfide 8-16 (inferred)) [Affinity ligand CS-458] | 54.3 | 0 | 1.8 | 0
AEGTGDFCWVFPFQHCADPGPEGGGS-NHNH2 (disulfide 8-16 (inferred)) [Affinity ligand CS-459] | 42.1 | 0 | 1.6 | 0
AEGTGDFCWVFPFHHCFDPGPEGGGS-NHNH2 (disulfide 8-16 (inferred)) [Affinity ligand CS-460] | 28.8 | 0 | 24.6 | 0

These binders were tested against REFACTO® factor VIII-like polypeptide (amino acids 1-743 and 1638 through 2332 of human factor VIII) (human) (UniProt P00451) (assay: phage ELISA).

Binder | R (ratio of the ELISA score with target present to the ELISA score without target)
HSCGSWLFPCFA [TN7 isolate A06 (phage-displayed peptide, SEQ ID NO: 4)] | 10
HPCGSWFNPCAH [TN8 isolate 02 (phage-displayed peptide, SEQ ID NO: 13)] | 8
HPCGSWFRPCFH [TN8 isolate 02 (phage-displayed peptide, SEQ ID NO: 14)] | 16
RLCSWVSPCSA [TN7 isolate C5/G10 (phage-displayed peptide, SEQ ID NO: 9)] | 10
FGCSWLFPCPF [TN7 isolate A08 (phage-displayed peptide, SEQ ID NO: 5)] | 8
HACGSWFRPCHA [TN8 isolate 07 (phage-displayed peptide, SEQ ID NO: 15)] | 6
RLCSWISPCSA [TN7 isolate D04 (phage-displayed peptide, SEQ ID NO: 7)] | 6
HPCGAWLRPCYN [TN8 isolate 08 (phage-displayed peptide, SEQ ID NO: 20)] | 20
HPCGSWLRPCLH [TN8 isolate 10 (phage-displayed peptide, SEQ ID NO: 10)] | 16
HLCFAWFRPCDA [TN8 isolate 12 (phage-displayed peptide, SEQ ID NO: 17)] | 8
HPCGSWLHPCAA [TN8 isolate 04 (phage-displayed peptide, SEQ ID NO: 12)] | 6
HLCGAWFRPCDA [TN8 isolate 02 (phage-displayed peptide, SEQ ID NO: 16)] | 6
HRCGSWLHPCLA [TN8 isolate 11/G10 (phage-displayed peptide, SEQ ID NO: 21)] | 6
FCWVFAFDHCH [TN9/1 isolate … (SEQ ID NO: 71)] | 24
FCWVFPFQHCA [TN9 isolate 09 (phage-displayed peptide, SEQ ID NO: 29)] | 24
FCWVFNFSHCS [TN9 isolate 03 (phage-displayed peptide, SEQ ID NO: 26)] | 24
FCWVFPFNHCS [TN9 isolate 12 (phage-displayed peptide, SEQ ID NO: 28)] | 18
FCWVFNWVHCD [TN9/1 isolate … (SEQ ID NO: 75)] | 14
FCWVFPFNHCD [TN9 isolate 02 (phage-displayed peptide, SEQ ID NO: 27)] | 8
FCWVFQFRHCH [TN9/1 isolate … (SEQ ID NO: 77)] | 8
FCHVFNFVHCS [TN9 isolate 01 (phage-displayed peptide, SEQ ID NO: 31)] | 8
FCWVFPFHHCF [TN9 isolate 06 (phage-displayed peptide, SEQ ID NO: 30)] | 6

Each binder was assayed against REFACTO® factor VIII-like polypeptide (amino acids 1-743 and 1638 through 2332 of human factor VIII) (human) (UniProt P00451) (assay: phage ELISA, anti-M13-HRP).

Binder | ELISA signal [OD630]
HSCGSWLFPCFA [TN7 isolate A06 (phage-displayed peptide, SEQ ID NO: 4)] | 0.5
HPCGSWFNPCAH [TN8 isolate 02 (phage-displayed peptide, SEQ ID NO: 13)] | 0.3
HPCGSWFRPCFH [TN8 isolate 02 (phage-displayed peptide, SEQ ID NO: 14)] | 0.7
RLCSWVSPCSA [TN7 isolate C5/G10 (phage-displayed peptide, SEQ ID NO: 9)] | 0.5
FGCSWLFPCPF [TN7 isolate A08 (phage-displayed peptide, SEQ ID NO: 5)] | 0.4
HACGSWFRPCHA [TN8 isolate 07 (phage-displayed peptide, SEQ ID NO: 15)] | 0.4
RLCSWISPCSA [TN7 isolate D04 (phage-displayed peptide, SEQ ID NO: 7)] | 0.3
HPCGAWLRPCYN [TN8 isolate 08 (phage-displayed peptide, SEQ ID NO: 20)] | 1
HPCGSWLRPCLH [TN8 isolate 10 (phage-displayed peptide, SEQ ID NO: 10)] | 1
HLCFAWFRPCDA [TN8 isolate 12 (phage-displayed peptide, SEQ ID NO: 17)] | 0.4
HPCGSWLHPCAA [TN8 isolate 04 (phage-displayed peptide, SEQ ID NO: 12)] | 0.3
HLCGAWFRPCDA [TN8 isolate 02 (phage-displayed peptide, SEQ ID NO: 16)] | 0.4
HRCGSWLHPCLA [TN8 isolate 11/G10 (phage-displayed peptide, SEQ ID NO: 21)] | 0.3
FCWVFPFQHCA [TN9 isolate 09 (phage-displayed peptide, SEQ ID NO: 29)] | 1.1
FCWVFNFSHCS [TN9 isolate 03 (phage-displayed peptide, SEQ ID NO: 26)] | 1.1
FCWVFPFNHCS [TN9 isolate 12 (phage-displayed peptide, SEQ ID NO: 28)] | 1
FCWVFPFNHCD [TN9 isolate 02 (phage-displayed peptide, SEQ ID NO: 27)] | 0.4
FCHVFNFVHCS [TN9 isolate 01 (phage-displayed peptide, SEQ ID NO: 31)] | 0.5
FCWVFPFHHCF [TN9 isolate 06 (phage-displayed peptide, SEQ ID NO: 30)] | 0.3
HGCGAWFRPCHA [TN8 isolate 01 (phage-displayed peptide, SEQ ID NO: 18)] | 0.2
HPCGAWFNPCPR [TN8 isolate 01 (phage-displayed peptide, SEQ ID NO: 19)] | 0.2
FCWVHPFAHCL [TN9 isolate 02 (phage-displayed peptide, SEQ ID NO: 23)] | 0.2
FCHVFHFSHCD [TN9 isolate 01 (phage-displayed peptide, SEQ ID NO: 24)] | 0.2
FCHVFPFLHCD [TN9 isolate 11 (phage-displayed peptide, SEQ ID NO: 32)] | 0.2
PHCNWLFPCSL [TN7 isolate D03 (phage-displayed peptide, SEQ ID NO: 6)] | 0.2
FHCIGVWFCLH [TN7 isolate A09 (phage-displayed peptide, SEQ ID NO: 8)] | 0.1
RGCGSWLRPCLD [TN8 isolate 05 (phage-displayed peptide, SEQ ID NO: 11)] | 0.2
